T1: SaDnaD1-204 (Staphylococcus aureus subsp. aureus ED98, UniProt Q9EUT0 1-204, del205-228)
T1 sequence: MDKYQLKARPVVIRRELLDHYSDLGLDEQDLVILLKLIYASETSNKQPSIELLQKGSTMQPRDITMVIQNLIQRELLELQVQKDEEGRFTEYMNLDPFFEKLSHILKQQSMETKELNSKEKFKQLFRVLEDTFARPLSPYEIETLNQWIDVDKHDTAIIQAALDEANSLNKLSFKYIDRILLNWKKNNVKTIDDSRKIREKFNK

T2: SaDnaD1-195 (Staphylococcus aureus subsp. aureus ED98, UniProt Q9EUT0 1-195, del196-228)
T2 sequence: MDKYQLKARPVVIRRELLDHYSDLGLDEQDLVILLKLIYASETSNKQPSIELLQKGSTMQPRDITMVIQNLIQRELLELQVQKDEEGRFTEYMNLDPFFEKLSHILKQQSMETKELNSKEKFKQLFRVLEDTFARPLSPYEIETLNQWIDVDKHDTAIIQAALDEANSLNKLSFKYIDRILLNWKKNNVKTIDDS

T3: SaDnaD1-200 (Staphylococcus aureus subsp. aureus ED98, UniProt Q9EUT0 1-200, del201-228)
T3 sequence: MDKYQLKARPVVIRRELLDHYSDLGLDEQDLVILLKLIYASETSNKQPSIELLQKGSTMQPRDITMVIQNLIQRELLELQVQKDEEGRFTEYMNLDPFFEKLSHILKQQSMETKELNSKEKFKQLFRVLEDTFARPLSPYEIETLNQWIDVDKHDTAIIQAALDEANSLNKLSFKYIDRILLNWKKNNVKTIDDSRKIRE


Experiments:
SaDnaD1-204 = target: T1, SaDnaD1-204; assay: tryptophan fluorescence quenching; DNA:protein ratio 1; EMSA: 20 mM Tris-HCl pH 8.0, 100 mM NaCl, 25 C, 30 min, 1.7 nM DNA, gel at 4 C in TBE; fluorescence: 20 mM Tris-HCl pH 8.0, 200 or 500 mM NaCl, 0.1 uM tetramer; details: protein: recombinant; tags: C-terminal His tag (pET21e); chain copies: 4; label: 5'-32P (EMSA); unlabeled in fluorescence titration
SaDnaD1-195 [1] = target: T2, SaDnaD1-195; assay: as above; details: protein: recombinant; tags: C-terminal His tag (pET21e); chain copies: 4; label: 5'-32P (EMSA); unlabeled in fluorescence titration
SaDnaD1-200 [2] = target: T3, SaDnaD1-200; assay: as above; details: protein: recombinant; tags: C-terminal His tag (pET21e); chain copies: 4; label: 5'-32P (EMSA); unlabeled in fluorescence titration
SaDnaD1-195 [3] = target: T2, SaDnaD1-195; assay: EMSA; EMSA: 20 mM Tris-HCl pH 8.0, 100 mM NaCl, 25 C, 30 min, 1.7 nM DNA, gel at 4 C in TBE; fluorescence: 20 mM Tris-HCl pH 8.0, 200 or 500 mM NaCl, 0.1 uM tetramer; details: protein: recombinant; tags: C-terminal His tag (pET21e); chain copies: 4; label: 5'-32P
SaDnaD1-200 [4] = target: T3, SaDnaD1-200; assay: as above; details: protein: recombinant; tags: C-terminal His tag (pET21e); chain copies: 4; label: 5'-32P

| Binder | binding signal (SaDnaD1-204) [% quenching] | binding signal (SaDnaD1-195 [1]) [% quenching] | binding signal (SaDnaD1-200 [2]) [% quenching] | binding result (SaDnaD1-195 [3]) | binding result (SaDnaD1-200 [4]) |
| --- | --- | --- | --- | --- | --- |
| dT65 (ssDNA) DNA: TTTTTTTTTTTTTTTTTTTTTTTTTTTTTTTTTTTTTTTTTTTTTTTTTTTTTTTTTTTTTTTTT | ~20 | < 5 | < 10 | – | – |
| TTTTTTTTTTTTTTTTTTTTTTTTTTTTTTTTTTTTTTTT (ssDNA) [dT40] | – | – | – | no binding | no binding |
